{"source": "patent US10731187B2", "about": "“Recombinant strain producing O-aminobenzoate and fermentative production of aniline from renewable resources via 2-aminobenzoic acid” (Covestro Deutschland AG, priority 2014, dated 2020)", "proteins": {"B1": {"name": "E. coli TrpEG (anthranilate synthase) variant TrpEGS40F, mutation S40F (SEQ ID NO: 53 in b85; SEQ ID No. 50-51 in b196) (Escherichia coli K-12; S40F) (protein)", "chain": "MQTQKPTLELLTCEGAYRDNPTALFHQLCGDRPATLLLEFADIDSKDDLKSLLLVDSALRITALGDTVTIQALSGNGEALLALLDNALPAGVESEQSPNCRVLRFPPVSPLLDEDARLCSLSVFDAFRLLQNLLNVPKEEREAMFFGGLFSYDLVAGFEDLPQLSAENNCPDFCFYLAETLMVIDHQKKSTRIQASLFAPNEEEKQRLTARLNELRQQLTEAAPPLPVVSVPHMRCECNQSDEEFGGVVRLLQKAIRAGEIFQVVPSRRFSLPCPSPLAAYYVLKKSNPSPYMFFMQDNDFTLFGASPESSLKYDATSRQIEIYPIAGTRPRGRRADGSLDRDLDSRIELEMRTDHKELSEHLMLVDLARNDLARICTPGSRYVADLTKVDRYSYVMHLVSRVVGELRHDLDALHAYRACMNMGTLSGAPKVRAMQLIAEAEGRRRGSYGGAVGYFTAHGDLDTCIVIRSALVENGIATVQAGAGVVLDSVPQSEADETRNKARAVLRAIATAHHAQETF"}, "B2": {"name": "Corynebacterium glutamicum ATCC 13032 TrpEG (anthranilate synthase), natural (wild type, Cgl3029/31) (Corynebacterium glutamicum ATCC 13032) (protein)", "chain": "MSTNPHVFSLDVRYHEDASALFAHLGGTTADDAALLESADITTKNGISSLAVLKSSVRITCTGNTVVTQPLTDSGRAVVARLTQQLGQYNTAENTFSFPASDAVDERERLTAPSTIEVLRKLQFESGYSDASLPLLMGGFAFDFLETFETLPAVEESVNTYPDYQFVLAEIVLDINHQDQTAKLAGVSNAPGELEAELNKLSLLIDAALPATEHAYQTTPHDGDTLRVVADIPDAQFRTQINELKENIYNGDIYQVVPARTFTAPCPDAFAAYLQLRATNPSPYMFYIRGLNEGRSYELFGASPESNLKFTAANRELQLYPIAGTRPRGLNPDGSINDELDIRNELDMRTDAKEIAEHTMLVDLARNDLARVSVPASRRVADLLQVDRYSRVMHLVSRVTATLDPELDALDAYRACMNMGTLTGAPKLRAMELLRGVEKRRRGSYGGAVGYLRGNGDMDNCIVIRSAFVQDGVAAVQAGAGVVRDSNPQSEADETLHKAYAVLNAIALAAGSTLEVIR"}, "B3": {"name": "Corynebacterium glutamicum TrpEG (anthranilate synthase) variant TrpEGS38R, mutation S38R (SEQ ID NO: 51 in b85; SEQ ID No. 52-53 in b196) (Corynebacterium … (protein)", "chain": "B2 chain with S38R"}, "B4": {"name": "Corynebacterium glutamicum TrpEG (anthranilate synthase) variant TrpEGS38F, mutation S38F (SEQ ID NO: 50 in b85; SEQ ID No. 52-53 in b196) (Corynebacterium … (protein)", "chain": "B2 chain with S38F"}}, "conditions_in_all_cases": "other: raw extract (cell lysate), 25 °C, 20 mM L-glutamine, 10 mM MgCl2, chorismate as substrate", "key": {"[1]": {"substrate": "C=C(O[C@@H]1C=C(C(=O)O)C=C[C@H]1O)C(=O)O", "test": "Anthranilate synthase activity in cell lysate of C. glutamicum ΔtrpD/pEKEx2-trpEG^S40F (KM and vmax)", "assay_type": "biochemical, E. coli", "source_text": "(§1) In more specific embodiments of the recombinant microbial host cell of invention, the Corynebacterium glutamicum microbial host cell, preferably Corynebacterium glutamicum ATCC 13032, can further overexpress one or more of the genes selected from the group consisting of galP (SEQ ID NO: 30), iolT2 (SEQ ID NO: 31), ppgk (SEQ ID NO: 32), pps (SEQ ID NO: 33-35), ppk (SEQ ID NO: 36), zwfl (SEQ ID NO: 37), opcA (SEQ ID NO: 38-39), tktCg (SEQ ID NO: 40), tktEc (SEQ ID NO: 41), talCg (SEQ ID NO: 42), tame (SEQ ID NO: 43), a gene encoding TrpEGS38F (trpEG^S38F, SEQ ID NO: 50), a gene encoding TrpEGS38R (trpEG^S38R, SEQ ID NO: 51), a gene encoding TrpEGS40R (trpEG^S40R, SEQ ID NO: 52), a gene encoding TrpEGS40F (trpEG^S40F, SEQ ID NO: 53), the gene encoding AroGD146N (aroG^D146N, SEQ ID NO: 55), aroL of Escherichia coli LJ110 (SEQ ID NO: 93), aroK (SEQ ID NO: 94), glnA (SEQ ID NO: 95), and qsuA (SEQ ID NO: 96). […]"}, "[2]": {"substrate": "C=C(O[C@@H]1C=C(C(=O)O)C=C[C@H]1O)C(=O)O", "test": "cells, lysate or membranes"}, "[3]": {"substrate": "C=C(O[C@@H]1C=C(C(=O)O)C=C[C@H]1O)C(=O)O", "test": "Anthranilate synthase activity in cell lysate of C. glutamicum ΔtrpD/pEKEx2-trpEG^S38R (KM and vmax)", "assay_type": "biochemical, Corynebacterium glutamicum ATCC 13032", "source_text": "as §1"}, "[4]": {"substrate": "C=C(O[C@@H]1C=C(C(=O)O)C=C[C@H]1O)C(=O)O", "test": "Anthranilate synthase activity in cell lysate of C. glutamicum ΔtrpD/pEKEx2-trpEG^S38F (KM and vmax)", "assay_type": "biochemical, Corynebacterium glutamicum ATCC 13032", "source_text": "as §1"}}, "note": "Where a chain is given by its changes, count along the chain named. Names may count otherwise."}
{"protein": "B1", "values": [{"measurement": "Vmax", "setting": "[1]", "result": 0.427, "unit": "µmol/min/mg"}]}
{"protein": "B2", "values": [{"measurement": "Km", "setting": "[2]", "result": 11.4, "unit": "µmol"}, {"measurement": "Vmax", "setting": "[2]", "result": 0.0127, "unit": "µmol/min/mg"}]}
{"protein": "B3", "values": [{"measurement": "Km", "setting": "[3]", "result": 21.6, "unit": "µmol"}, {"measurement": "Vmax", "setting": "[3]", "result": 0.231, "unit": "µmol/min/mg"}]}
{"protein": "B4", "values": [{"measurement": "Km", "setting": "[4]", "result": 16.2, "unit": "µmol"}, {"measurement": "Vmax", "setting": "[4]", "result": 0.0688, "unit": "µmol/min/mg"}]}
